The labels stand for the following.
B1: 374_C11 (antibody, V domains shown)
VH: EVQLLESGGGLVQPGGSLRLSCAASGFTFSSYSMNWVRQAPGKGLEWVAGINYNSGYKGYADSVKGRFTISRDNSKNTLYLQMNSLRAEDTAVYYCARSATWHDTHLDYWGQGTLVTVSS
VL: DIQMTQSPSSLSASVGDRVTITCRASQSILTYLNWYQQKPGKAPKLLIYAATSRASGVPSRFSGSGSGTDFTLTISSLQPEDFATYYCQQSYESPLTFGGGTKVEIK
B2: 376_C11 (antibody, V domains shown)
VH: B1 VH with S30D, G59S
VL: B1 VL with L47V, E93D, S94N
B3: 372_D04 (antibody, V domains shown)
VH: B1 VH with G50N, K58T
VL: B1 VL with R54L, A55H, E93D, S94L
B4: 365_B09 (antibody, V domains shown)
VH: B1 VH with S30D, G59S
VL: B1 VL with T31R, R54L, A55H, E93D, S94N
B5: 369_F12 (antibody, V domains shown)
VH: B1 VH with G50S, G59S
VL: B1 VL with L30I, T31S, A51V, R54L, S94N
B6: 366_D02 (antibody, V domains shown)
VH: B1 VH with G50S, S55G, K58T, G59S
VL: B1 VL with T31S, L33V, A51T, R54L, E93D, S94L
B7: 367_G07 (antibody, V domains shown)
VH: B1 VH with S30D, G50N, S55G, K58T
VL: B1 VL with L33V, E93D, S94N
B8: 369_A10 (antibody, V domains shown)
VH: B1 VH with S30D, K58T
VL: B1 VL with T31S, S94L
B9: 373_B11 (antibody, V domains shown)
VH: B1 VH with G50N
VL: B1 VL with T31S, E93D, S94N
B10: 375_G07 (antibody, V domains shown)
VH: B1 VH with S30D, K58T, G59S
VL: B1 VL with T31S, L47V, R54L, E93D, S94L
B11: 374_C05 (antibody, V domains shown)
VH: B1 VH with S30D, G59S
VL: B1 VL with L30I, T31R, L47V, E93D, S94N
B12: 368_H01 (antibody, V domains shown)
VH: B1 VH with G59S
VL: B1 VL with T31S, A51T, R54L, E93D, S94N
B13: 373_E06 (antibody, V domains shown)
VH: B1 VH with S30D, G59S
VL: B1 VL with T31R, R54L, A55H, E93D, S94N
B14: 371_F05 (antibody, V domains shown)
VH: B1 VH with G59S
VL: B1 VL with T31S, A55H, S94N
B15: 365_F08 (antibody, V domains shown)
VH: B1 VH with S30D, S31D, S33G, G50N, S55G, K58T, G59S
VL: B1 VL with T31S, L33V, A55H, E93S, S94L
B16: 370_A06 (antibody, V domains shown)
VH: B1 VH with G50S, G59S
VL: B1 VL with L30V, L47V, R54L, E93D, S94L
B17: 368_H12 (antibody, V domains shown)
VH: B1 VH with S30D, G50S
VL: B1 VL with L30V
B18: 375_C12 (antibody, V domains shown)
VH: B1 VH with G50N, S55G, K58T
VL: B1 VL with E93D, S94L
B19: 368_E11 (antibody, V domains shown)
VH: B1 VH with S30D, S33G, N35H, G50N, S55G, K58T, G59S
VL: B1 VL with L30I, T31S, L33V, A55H, S94L
B20: 373_B03 (antibody, V domains shown)
VH: B1 VH with G59S
VL: B1 VL with L47V, R54L, E93D, S94N
B21: 365_A10 (antibody, V domains shown)
VH: B1 VH with S33G, N35H, K58T, G59S
VL: B1 VL with L47V, A51V, R54L, E93D
B22: 373_F03 (antibody, V domains shown)
VH: B1 VH with S30D, G50N, K58T
VL: B1 VL with L33V, A55H, E93D
B23: 368_G09 (antibody, V domains shown)
VH: B1 VH with S30D, S33G, N35H, G50N, S55G, K58T, G59S
VL: B1 VL with L30V, T31S, L47V, E93D, S94T
B24: 371_G03 (antibody, V domains shown)
VH: B1 VH with S33G, G50N, S55G
VL: B1 VL with L30V, L33V, L47V, R54L, E93N, S94L
B25: 374_C04 (antibody, V domains shown)
VH: B1 VH with G59S
VL: B1 VL with T52S, R54L, A55Q, S94L
B26: 374_D02 (antibody, V domains shown)
VH: B1 VH with S30D, K58T, G59S
VL: B1 VL with L30S, L33V, A51V, R54L, E93D
B27: 375_B04 (antibody, V domains shown)
VH: B1 VH with S30D, G50N, S55G, K58T
VL: B1 VL with E93D, S94N
B28: 373_B08 (antibody, V domains shown)
VH: B1 VH with S30D, G50N
VL: B1 VL with L47V, R54L, S94N
B29: 368_F12 (antibody, V domains shown)
VH: B1 VH with S30D, S31D, G50S, G59S
VL: B1 VL with L30V, L47V, R54L, E93D, S94L
B30: 367_F02 (antibody, V domains shown)
VH: B1 VH with S30D, G50N, S55G, K58T, G59S
VL: B1 VL with L30I, T31S, L33V, A55H
B31: 370_E07 (antibody, V domains shown)
VH: B1 VH with S30D, G50N, S55G, K58T
VL: B1 VL with E93D, S94N
B32: 373_C09 (antibody, V domains shown)
VH: B1 VH with S30D, G59S
VL: B1 VL with L47V, S94L

Experimental findings from US20210380703A1 are described below.

Where a chain is given by its changes, count along the chain named.

The target in the assay is human Fc (human). The experiment in a line: ELISA; negative control. On the technique in general: An ELISA detects its analyte on a solid surface through an enzyme-linked reagent.
Take B1: the optical density was determined as 0.471 OD.

For B2, the optical density was 0.23 OD.

B3 gave an optical density of 0.419 OD.

B4 had an optical density of 0.272 OD.

Consider B5, for which the optical density worked out at 0.434 OD.

The molecule B6 returned an optical density of 0.349 OD.

On to B7, for which the optical density came to 0.295 OD.

B8 registered an optical density of 0.348 OD.

On to B9, for which the optical density came out at 0.178 OD.

On to B10, for which the optical density is 0.178 OD.

B11: the optical density was found to be 0.175 OD.

On to B12, for which the optical density was 0.374 OD.

In the case of B13, the optical density amounted to 0.187 OD.

B14 yielded an optical density of 0.297 OD.

B15 showed an optical density of 0.437 OD.

In turn, B16 returned an optical density of 0.331 OD.

As for B17, the optical density was determined as 0.381 OD.

For the molecule B18, the optical density worked out at 0.197 OD.

Consider B19, for which the optical density amounted to 0.341 OD.

B20: the optical density amounted to 0.18 OD.

Molecule B21 had an optical density of 0.293 OD.

In turn, B22 had an optical density of 0.179 OD.

For B23, the optical density amounted to 0.281 OD.

B24 yielded an optical density of 0.359 OD.

B25 yielded an optical density of 0.201 OD.

As for B26, the optical density is 0.204 OD.

In the case of B27, the optical density was 0.19 OD.

The molecule B28 displayed an optical density of 0.17 OD.

For the molecule B29, the optical density was found to be 0.349 OD.

As for B30, the optical density was 0.315 OD.

The molecule B31 came in with an optical density of 0.379 OD.

B32 registered an optical density of 0.17 OD.
